Results on 7 sequences are retold here after the DeepSol protein solubility set.

This series can be described thus: soluble on expression in E. coli; label from the status in PepcDB or PDB records.
In the case of “MGSDKIHHHHHHMKVIIVDDDKAMFLILKKMLSKIHNVEVIGTFDRLSTTMEFLENNEVDLAFLDIKISGDNGIDLAKQIVNLKKQINIVFISSHKEFALDSFDVFPLDYIVKPVSQEKLERAIDRASKVIIKSGEEEYKAFIYCFGGLEVRGRNNESVKWISTKSMELFSYLVINSGRSISRGRVIKDIFEEMELKDVESYLNTIVYQLRKALSPLGLKKIITFDSQGYSFDFKDVYVDYIDFISGVESIKEINKDNIDRAKQLVYLYKGDLFDDKEYIWAVGEKEYASNLYSKFLGKVCSWYLENDLINDAYSMGKKLIQYNELDSEVNKIFMNILAARRDKISLNKHYERYAKVLFRELGVKVEDSVEELYRKLIKVLR”, the “soluble on expression in E. coli” value is “not soluble”.

In the case of “MGSDKIHHHHHHMKVKPFSLSIPFNTEPPSDWKDAWDVQLYVKVEDEKDYGWGEALVAGSGIINSYLSIINDIAIPLLSRVELSEPIDVRTILEKILFSAGNCGVVSGAISAVEMALWSLKARKSNVELYKLIGDKIRDSVKVYASFPRFGKIDDVLIATRKSLERGFDLVKLHQSPSTVLAAVKAIRENYKEVKIAIDLNSPFDNLDVAKEFVDKVHKYEIEWIEEPLWPPNDYDLLSKLTEFSPIPIAAGENEYSLYGFKKLIESGITYLQPDIAKVGGVTKFLEILDLASKYKVRVLPHDRPDASPISLIYTLNIGLVKSQIEMVEYTIADFPNDLFYSLPKFKDGYISPPENLEVVERNIEKYSYKNRLRILHFSDLENKLMRKIT”, the “soluble on expression in E. coli” value is listed as “not soluble”.

Take “MGSDKIHHHHHHMKVKSVSEILIYPPDRIVGDLWIVRNWVTKRNYKVSSPTLAILLYCKIPHTVGDILDFFYEKYGIKNELIHLGLKKLMATDLLLEVKQEMDGSNEVFGLEFDNWYKHNWYMALLYHLVSYDYPFIEDYVAKQRMINYSSQEIDSNRYKEYNSQVSYDIPKATEVKIRETNTSKQKCVNFADLLTMASLGYTRVGSLRVYWNGDPLILRTSPSGGSRHPTETYIVAINVEGLESGWYHISVKDSKLEQIKIGGTDPDDLRLLFPTTYVRPDFHVDLILIFTSIFERNMYRYREPRTFRTIHMDVGHLAATTEIICEKLGYKYLVQYSANDEGIEKFLGLSPLKEGYMASMAIGN”: the “soluble on expression in E. coli” value was “not soluble”.

Consider “MGSDKIHHHHHHMKVTIIGAAGQIPHFLIPMLQKQTDAELTLFARNATSRLLDYSKPTVRIVDGDASKSGDVKTAITDADVVFMDFDNPEAVKNVIKVMDQLGKKRLIVAGVLGVYDEVAGAFGKWNNMMIGSGYLPHKQAVTELEKSDLDYTYMRMTWLYDQDGNTNYETQKKGQPLIGAQVTRQAVSQYVIDMIKNPELGIRESNGVVEPNTNFAKPSFY”, for which the “soluble on expression in E. coli” value is listed as “not soluble”.

In the case of “MGSDKIHHHHHHMKVTVTTLELKDKITIASKALAKKSVKPILAGFLFEVKDGNFYICATDLETGVKATVNAAEISGEARFVVPGDVIQKMVKVLPDEITELSLEGDALVISSGSTVFRITTMPADEFPEITPAESGITFEVDTSLLEEMVEKVIFAAAKDEFMRNLNGVFWELHKNLLRLVASDGFRLALAEEQIENEEEASFLLSLKSMKEVQNVLDNTTEPTITVRYDGRRVSLSTNDVETVMRVVDAEFPDYKRVIPETFKTKVVVSRKELRESLKRVMVIASKGSESVKFEIEENVMRLVSKSPDYGEVVDEVEVQKEGEDLVIAFNPKFIEDVLKHIETEEIEMNFVDSTSPCQINPLDISGYLYIVMPIRLA”, the “soluble on expression in E. coli” value is recorded as “soluble”.

As to “MGSDKIHHHHHHMKYISPGDWFSLEYPMGWHEFEDTEESFLFYNPDRWTGNFRISAYKDEAADYGPQCIAYELKENTSSALVKVGKWDCAYSAETFQEEGAWYTTHIWVTGEGDLSFECSFTVSKGGDKHPAEEIIRSLQVRKEGVSHPREIIPIRVLEIGEVNTAFEWASTTIKKQLTKDFTASESDIDSIQQVMDSGRFQTQQRMAWENFGIAFGAILVNEMEGMEWVTVIEGQKEYPALQFMCSDMVLDPAALVWGKAKKGLPCDLKSEFRKIKREAEAVLDDLNK”, the “soluble on expression in E. coli” value was “not soluble”.

Consider “MGSDKIHHHHHHMKYRTVFDIIGPVMIGPSSSHTAGAARIGRVARTLFGQQPERCDIYFYGSFAETYKGHGTDVAIVGGILDFDTFDPRIPRSLQLAKEKGVRVYFHEEEAITDHPNTAKVVLQKGEDQLEVVGVSIGGGKIEIVELNGFHLKLSGNHPAILVVHTDRFGVIASVSNMLAKHEINIGHMEVSRKEKGKEALMVIEVDQNVDDLLLQELERLPNIVTVTKIHD”, for which the “soluble on expression in E. coli” value was “not soluble”.
